Assay: Western blot, Huh7.5.1 lysates, 16 h
Conditions: glycan lost; control: untreated

B1: SR-BI (scavenger receptor class B, type I): tunicamycin (protein)
parent chain: MGCSAKARWAAGALGVAGLLCAVLGAVMIVMVPSLIKQQVLKNVRIDPSSLSFNMWKEIPIPFYLSVYFFDVMNPSEILKGEKPQVRERGPYVYREFRHKSNITFNNNDTVSFLEYRTFQFQPSKSHGSESDYIVMPNILVLGAAVMMENKPMTLKLIMTLAFTTLGERAFMNRTVGEIMWGYKDPLVNLINKYFPGMFPFKDKFGLFAELNNSDSGLFTVFTGVQNISRIHLVDKWNGLSKVDFWHSDQCNMINGTSGQMWPPFMTPESSLEFYSPEACRSMKLMYKESGVFEGIPTYRFVAPKTLFANGSIYPPNEGFCPCLESGIQNVSTCRFSAPLFLSHPHFLNADPVLAEAVTGLHPNQEAHSLFLDIHPVTGIPMNCSVKLQLSLYMKSVAGIGQTGKIEPVVLPLLWFAESGAMEGETLHTFYTQLVLMPKVMHYAQYVLLALGCVLLLVPVICQIRSQVGAGQRAARADSHSLACWGKGASDRTLWPTAAWSPPPAAVLRLCRSGSGHCWGLRSTLASFACRVATTLPVLEGLGPSLGGGTGS
expression_or_secretion: decreases

From PMC6743029
